The text below walks through data of paper PMC5374410, “Identification of a Potent Allosteric Inhibitor of Human Protein Kinase CK2 by Bacterial Surface Display Library Screening” (Pharmaceuticals, 2017).

The target of assay [1] is recombinant human protein kinase CK2 holoenzyme coupled to fluorescein isothiocyanate (FITC) (human) (UniProt P68400).
For assay [2], the target named is CK2α-pAzF coupled to DBCO-Sulfo-Cy5 (human) (UniProt P68400). Put plainly: MST; B2 titrated (7.6 nM to 125 or 250 µM) to 100 nM fluorophore-labelled CK2α-DBCO-Sulfo-Cy5 or CK2β^1-193-Flu; 50 mM Tris/HCl pH 7.5, 25 mM NaCl, 20 mM MgCl2, Tween-20, DMSO; 37 °C, MST power 60%; Monolith NT.115; three independent measurements.

Some results are limits rather than exact numbers.

Chain of recombinant human protein kinase CK2 holoenzyme coupled to fluorescein isothiocyanate (FITC) (human) (P68400 whole entry, chain 1 of 2): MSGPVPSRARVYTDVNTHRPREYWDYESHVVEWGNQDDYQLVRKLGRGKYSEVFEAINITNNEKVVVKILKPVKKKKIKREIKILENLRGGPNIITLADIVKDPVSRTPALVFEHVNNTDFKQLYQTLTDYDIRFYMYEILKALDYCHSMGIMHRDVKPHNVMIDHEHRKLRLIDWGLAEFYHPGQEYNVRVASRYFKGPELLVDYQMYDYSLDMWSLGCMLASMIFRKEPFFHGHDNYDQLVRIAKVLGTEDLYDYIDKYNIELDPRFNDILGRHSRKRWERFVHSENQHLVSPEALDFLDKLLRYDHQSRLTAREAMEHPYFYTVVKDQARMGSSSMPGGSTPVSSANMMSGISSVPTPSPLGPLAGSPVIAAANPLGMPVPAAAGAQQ
Chain of recombinant human protein kinase CK2 holoenzyme coupled to fluorescein isothiocyanate (FITC) (human) (P67870 whole entry, chain 2 of 2, further chain): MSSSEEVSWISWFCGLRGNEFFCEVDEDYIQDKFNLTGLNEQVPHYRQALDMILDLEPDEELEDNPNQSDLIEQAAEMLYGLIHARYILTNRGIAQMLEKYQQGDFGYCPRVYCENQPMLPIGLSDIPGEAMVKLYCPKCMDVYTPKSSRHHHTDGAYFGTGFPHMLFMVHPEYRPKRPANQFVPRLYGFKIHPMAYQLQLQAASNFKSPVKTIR

With PCPAPRAPKLSI [peptide B4 (free synthetic peptide)], the percent inhibition of (unlabelled) CK2 holoenzyme at 10 µM peptide, CE assay in assay [1] was found to be 29%.

As to KHTKGPTAYCPL [peptide B1 (free synthetic peptide)], in assay [1], the percent inhibition of (unlabelled) CK2 holoenzyme at 10 µM peptide, CE assay is less than 5%.

As for DCRGLIVMIKLH [peptide B2 (free synthetic peptide)], the Kd in assay [2] is 2160 nM.

As to YRKPHWFIHTRI [peptide B3 (free synthetic peptide)], the percent inhibition of (unlabelled) CK2 holoenzyme at 10 µM peptide, CE assay in assay [1] is less than 5%.

What is called Kd is the concentration at which binding is half-saturated.
